According to patent US20090226442A1 (published 2009):
Substitutions are numbered along the chain they refer to. Like-named read-outs stand apart in the source and are kept apart here.

Legend:
[1] = target: human RON (recepteur d'origine nantais, MST1R), full length, expressed on cells (UniProt Q04912 25-1400); assay: FACS
[2] = target: T1, soluble human RON protein (R&D Systems, catalog 1947) (UniProt Q04912 25-571); assay: ELISA
[3] = target: T1, soluble human RON protein (R&D Systems, …); assay: ELISA; 4-P fit C
[4] = target: T2, soluble cynomolgus (Macaca fascicularis) RON protein (cynomolgus (Macaca fascicularis), UniProt A0A2K5VT07 25-571); assay: ELISA; 4-P fit C
T2 chain: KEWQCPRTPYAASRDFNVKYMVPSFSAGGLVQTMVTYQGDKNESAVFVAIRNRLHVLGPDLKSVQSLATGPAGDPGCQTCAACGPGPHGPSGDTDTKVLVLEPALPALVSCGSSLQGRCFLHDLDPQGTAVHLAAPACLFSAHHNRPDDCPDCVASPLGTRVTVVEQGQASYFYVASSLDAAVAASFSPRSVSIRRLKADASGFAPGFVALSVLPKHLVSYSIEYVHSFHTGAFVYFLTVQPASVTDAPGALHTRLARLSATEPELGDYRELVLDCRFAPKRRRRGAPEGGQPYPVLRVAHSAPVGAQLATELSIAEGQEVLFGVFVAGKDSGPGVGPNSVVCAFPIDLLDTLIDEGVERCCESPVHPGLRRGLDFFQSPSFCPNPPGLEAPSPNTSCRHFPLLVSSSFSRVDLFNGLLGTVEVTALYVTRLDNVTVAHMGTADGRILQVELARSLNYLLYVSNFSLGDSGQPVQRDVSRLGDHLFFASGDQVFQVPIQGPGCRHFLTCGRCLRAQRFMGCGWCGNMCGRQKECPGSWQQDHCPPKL

[5] = target: T1, soluble human RON protein (R&D Systems, …); assay: ELISA; 4-P fit C; remark: listed apart in the source
[6] = target: T2, soluble cynomolgus (Macaca …); assay: ELISA; 4-P fit C

Chain of human RON (recepteur d'origine nantais, MST1R), full length, expressed on cells (Q04912 25-1400): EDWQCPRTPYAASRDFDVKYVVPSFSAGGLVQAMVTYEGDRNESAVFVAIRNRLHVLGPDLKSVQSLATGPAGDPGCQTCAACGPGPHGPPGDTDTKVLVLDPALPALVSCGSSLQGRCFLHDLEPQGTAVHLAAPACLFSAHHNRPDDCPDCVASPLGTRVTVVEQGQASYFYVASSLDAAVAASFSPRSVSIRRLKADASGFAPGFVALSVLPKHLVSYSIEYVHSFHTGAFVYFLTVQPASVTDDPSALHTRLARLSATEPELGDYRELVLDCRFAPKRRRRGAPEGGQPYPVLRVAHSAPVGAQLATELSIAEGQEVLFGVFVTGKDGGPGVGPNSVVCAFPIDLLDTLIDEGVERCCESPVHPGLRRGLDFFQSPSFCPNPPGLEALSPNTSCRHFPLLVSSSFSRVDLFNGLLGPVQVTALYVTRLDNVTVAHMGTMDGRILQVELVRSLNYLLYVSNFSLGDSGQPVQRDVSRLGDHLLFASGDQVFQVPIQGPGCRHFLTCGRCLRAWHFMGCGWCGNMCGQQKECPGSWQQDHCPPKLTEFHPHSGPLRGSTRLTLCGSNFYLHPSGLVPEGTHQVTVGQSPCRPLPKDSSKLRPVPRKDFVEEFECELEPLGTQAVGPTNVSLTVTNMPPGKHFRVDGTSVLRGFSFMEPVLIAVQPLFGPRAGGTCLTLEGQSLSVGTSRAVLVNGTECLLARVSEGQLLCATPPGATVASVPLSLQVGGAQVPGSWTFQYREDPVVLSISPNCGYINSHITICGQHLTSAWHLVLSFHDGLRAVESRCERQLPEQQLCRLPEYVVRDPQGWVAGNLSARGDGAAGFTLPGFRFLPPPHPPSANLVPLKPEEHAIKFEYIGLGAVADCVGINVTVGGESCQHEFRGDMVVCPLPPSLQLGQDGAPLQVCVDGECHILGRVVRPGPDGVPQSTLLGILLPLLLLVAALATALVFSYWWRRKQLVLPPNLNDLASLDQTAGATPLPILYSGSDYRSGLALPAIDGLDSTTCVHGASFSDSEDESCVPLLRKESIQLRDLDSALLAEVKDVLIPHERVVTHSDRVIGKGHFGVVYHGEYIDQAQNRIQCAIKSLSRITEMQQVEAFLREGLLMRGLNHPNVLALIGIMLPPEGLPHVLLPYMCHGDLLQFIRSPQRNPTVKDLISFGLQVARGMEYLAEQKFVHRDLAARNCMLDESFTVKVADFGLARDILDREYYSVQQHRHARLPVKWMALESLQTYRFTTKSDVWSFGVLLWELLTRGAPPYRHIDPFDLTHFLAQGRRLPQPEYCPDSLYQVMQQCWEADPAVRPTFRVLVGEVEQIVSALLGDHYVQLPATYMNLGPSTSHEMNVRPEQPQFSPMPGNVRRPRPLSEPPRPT
T1 sequence (Q04912 25-571): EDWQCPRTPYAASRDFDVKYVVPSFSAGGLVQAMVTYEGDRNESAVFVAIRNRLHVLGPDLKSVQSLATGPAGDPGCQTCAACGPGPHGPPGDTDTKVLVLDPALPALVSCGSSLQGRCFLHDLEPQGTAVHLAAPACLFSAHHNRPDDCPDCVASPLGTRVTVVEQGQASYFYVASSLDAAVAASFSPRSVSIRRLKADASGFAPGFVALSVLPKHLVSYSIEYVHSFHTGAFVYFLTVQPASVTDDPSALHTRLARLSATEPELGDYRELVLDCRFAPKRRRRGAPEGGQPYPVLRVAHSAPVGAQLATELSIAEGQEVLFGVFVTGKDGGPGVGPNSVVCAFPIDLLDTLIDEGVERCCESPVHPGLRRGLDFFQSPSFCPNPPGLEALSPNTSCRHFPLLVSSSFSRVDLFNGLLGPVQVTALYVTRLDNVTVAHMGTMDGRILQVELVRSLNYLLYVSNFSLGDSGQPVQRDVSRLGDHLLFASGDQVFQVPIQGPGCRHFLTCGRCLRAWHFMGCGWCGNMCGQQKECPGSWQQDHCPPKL

B1: 1P5B10 murine monoclonal anti-RON antibody (antibody, V domains shown)
VH: EVQLQQSGPELVKPGASMKISCRAAGFSFTGYTMNWVKQSHGKSLEWIGLINLNNGGTSHNQKFKGKATLTVDKSSSTAYMELLSLTSEDSAVYYCARWLRRGGYAMDYWGQGISVTVSS
VL: DILLTQSPAILSVSPGERVSFSCRASQNIGTSIHWYQQRTNGSPRLLIKYASESISGIPSRFSGSGSGTDFTLSINSVESEDIADYYCQQSDSWPLTFGAGTKLELK
Question: Which EC50 [1] does the source give for B1 here?
Answer: 0.051 µg/mL

Question: And the EC50 [2]?
Answer: 0.013 µg/mL

Question: And the EC50 [3]?
Answer: 0.001 µg/mL

Question: And the EC50 [4]?
Answer: 0.002 µg/mL

B2: 1P2E7 murine monoclonal anti-RON antibody (antibody, V domains shown)
VH: DVQLQESGPGLVKPSQSLSLTCTVTGDSITSDYAWNWIRQFPGNKLEWMGYISYSGSTSYNPSLKSRFSITRDTSKNQFFLQLNSVTTEDSATYYCARGGFYYRYAGPGFAYWGQGTLVTVSA
VL: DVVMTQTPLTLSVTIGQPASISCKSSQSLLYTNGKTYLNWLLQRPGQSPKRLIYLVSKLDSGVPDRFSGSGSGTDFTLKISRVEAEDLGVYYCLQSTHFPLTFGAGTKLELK
Question: With B2 as the binder, how does the EC50 [1] read?
Answer: 0.013 µg/mL

Question: What about the EC50 [2] of the same binder?
Answer: 0.018 µg/mL

Question: And the EC50 [3]?
Answer: 0.000736 µg/mL

Question: What about the EC50 [4] of the same binder?
Answer: 0.002 µg/mL

B3: 1P4A12 murine monoclonal anti-RON antibody (antibody, V domains shown)
VH: B1 VH with R23K, A25S, F27Y, S44K, L53P, N54Y, S59I, H60Y, I114A
VL: B1 VL with N28S, Y50F, L106V
Question: Which EC50 [1] does the source give for B3 here?
Answer: 0.01 µg/mL

Question: What about the EC50 [2] of the same binder?
Answer: 0.016 µg/mL

Question: And the EC50 [3]?
Answer: 0.002 µg/mL

Question: And the EC50 [4]?
Answer: 0.005 µg/mL

B4: 1P3B2 murine monoclonal anti-RON antibody (antibody, V domains shown)
VH: EVQLQQSGPELEKPGASVKISCKASGYSFTGYNMNWVKQSNGESLEWIGDIDPYYGGTRYNQKFKGKATLTVDKSSSTAYMQLKSLTSEDSAVYYCAREGRGFAYWGQGTLVTVSA
VL: DIQMTQSPASLSASVGETVTITCRASENIYSYLAWYQKKQGKSPQLLVYNAKTSVEGVPSRFSGSGSGIQFSLKINSLQPEDFGSYYCHCQHHYGTLPTFGGGTKLEIK
Question: With B4 as the binder, how does the EC50 [1] read?
Answer: 0.006 µg/mL

Question: And the EC50 [2]?
Answer: 0.011 µg/mL

Question: What about the EC50 [4] of the same binder?
Answer: 0.01 µg/mL

B5: 1P4A3 murine monoclonal anti-RON antibody (antibody, V domains shown)
VH: B4 VH with K19M, N41T, E43K, G56D, V72A, A97T
VL: DIQMTQSPASLSASVGETVTITCRASENIYSYLAWYQQKQGKSPQLLVYNAKTLAGGVPSRFSGSGSGTQFSLKINSLQPEDFGSYYCQHYYGTPLTFGAGTKLELK
Question: With B5 as the binder, how does the EC50 [1] read?
Answer: 0.011 µg/mL

Question: And the EC50 [2]?
Answer: 0.018 µg/mL

Question: What about the EC50 [3] of the same binder?
Answer: 0.003 µg/mL

Question: What about the EC50 [4] of the same binder?
Answer: 0.003 µg/mL

B6: human macrophage stimulating protein (MSP) (R&D Systems cat. #4306-MS) (ligand)
chain: QRSPLNDFQVLRGTELQHLLHAVVPGPWQEDVADAEECAGRCGPLMDCRAFHYNVSSHGCQLLPWTQHSPHTRLRRSGRCDLFQKKDYVRTCIMNNGVGYRGTMATTVGGLPCQAWSHKFPNDHKYTPTLRNGLEENFCRNPDGDPGGPWCYTTDPAVRFQSCGIKSCREAACVWCNGEEYRGAVDRTESGRECQRWDLQHPHQHPFEPGKFLDQGLDDNYCRNPDGSERPWCYTTDPQIEREFCDLPRCGSEAQPRQEATTVSCFRGKGEGYRGTANTTTAGVPCQRWDAQIPHQHRFTPEKYACKDLRENFCRNPDGSEAPWCFTLRPGMRAAFCYQIRRCTDDVRPQDCYHGAGEQYRGTVSKTRKGVQCQRWSAETPHKPQFTFTSEPHAQLEENFCRNPDGDSHGPWCYTMDPRTPFDYCALRRCADDQPPSILDPPDQVQFEKCGKRVDRLDQRRSKLRVVGGHPGNSPWTVSLRNRQGQHFCGGSLVKEQWILTARQCFSSCHMPLTGYEVWLGTLFQNPQHGEPSLQRVPVAKMVCGPSGSQLVLLKLERSVTLNQRVALICLPPEWYVVPPGTKCEIAGWGETKGTGNDTVLNVALLNVISNQECNIKHRGRVRESEMCTEGLLAPVGACEGDYGGPLACFTHNCWVLEGIIIPNRVCARSRWPAVFTRVSVFVDWIHKVMRLG
Question: How did the EC50 [5] turn out when B6 was run?
Answer: 0.03 µg/mL

Question: And the EC50 [6]?
Answer: 0.038 µg/mL
